In experiment [1] the target is T1, recombinant human Tau monomer, 2N4R isoform (amino acids 2-441) (human, UniProt P10636-8 2-441).
T1 construct: range 2-441; N-terminal His-tag removed with TEV protease; also called monomeric Tau
Briefly: SPR, human Fab capture kit, Tau monomer analyte. The protocol:
Affinity was assessed at 25° C. using a Biacore T200 instrument, the GE Biacore human FAb capture kit and a CM5 Series S chip. The hIgG were diluted to 0.5 μg/ml in 10 mM HEPES pH7.4, 150 mM NaCl, 0.05% Tween 20 (running buffer, HBSP) and captured at a flow rate of 10 μl/min for 180 seconds. Kinetic data was collected for Human Tau monomer injected at concentrations of 0, 0.4, 1.2, 3.7, 11, 11, 33 and 100 nM in HBSP, using a flow rate of 30 μl/min, a 300 second association phase and a 600 second dissociation phase. Between cycles the surface was regenerated using two sequential 60 second injections of 10 mM Glycine pH 2.1. Data was fit to a 1:1 binding model.
(In general: In SPR one partner is held on a chip, and binding of the other changes the refractive index at the surface.)

Experiment [2] deals with T2, full-length human Tau (flTau) (human, UniProt P10636-8 1-441).
T2 construct: range 1-441; bought (SignalChem); also called human Tau-441
T2 sequence (P10636 other isoform, or with tags, fused parts or gaps limits assumed): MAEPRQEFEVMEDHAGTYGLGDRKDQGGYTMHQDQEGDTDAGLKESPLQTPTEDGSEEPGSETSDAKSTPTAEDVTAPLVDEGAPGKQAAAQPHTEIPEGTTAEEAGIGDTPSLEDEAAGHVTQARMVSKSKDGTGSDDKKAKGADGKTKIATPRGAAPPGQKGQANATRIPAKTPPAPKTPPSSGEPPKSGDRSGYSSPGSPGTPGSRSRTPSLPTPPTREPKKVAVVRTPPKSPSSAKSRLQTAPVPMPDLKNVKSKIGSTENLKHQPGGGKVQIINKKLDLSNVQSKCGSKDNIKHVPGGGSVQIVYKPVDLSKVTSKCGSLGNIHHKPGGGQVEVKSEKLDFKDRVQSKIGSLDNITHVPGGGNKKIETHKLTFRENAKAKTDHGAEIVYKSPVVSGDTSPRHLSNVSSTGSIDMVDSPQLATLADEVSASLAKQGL
In words: SPR, hybridoma Ab on anti-IgG chip, flTau analyte. In a few lines:
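Unpurified antibodies from serum-free hybridoma supernatants were captured on an anti-IgG SPR chip (Biacore T-100), and flTau was flowed as analyte. KD was obtained from kinetic analysis with a 1:1 Langmuir fit.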

The target of experiment [3] is T3, 0N4R Tau (human, UniProt P10636-6 1-383).
T3 construct: also called 0N-Tau
T3 sequence (P10636 other isoform, or with tags, fused parts or gaps limits assumed): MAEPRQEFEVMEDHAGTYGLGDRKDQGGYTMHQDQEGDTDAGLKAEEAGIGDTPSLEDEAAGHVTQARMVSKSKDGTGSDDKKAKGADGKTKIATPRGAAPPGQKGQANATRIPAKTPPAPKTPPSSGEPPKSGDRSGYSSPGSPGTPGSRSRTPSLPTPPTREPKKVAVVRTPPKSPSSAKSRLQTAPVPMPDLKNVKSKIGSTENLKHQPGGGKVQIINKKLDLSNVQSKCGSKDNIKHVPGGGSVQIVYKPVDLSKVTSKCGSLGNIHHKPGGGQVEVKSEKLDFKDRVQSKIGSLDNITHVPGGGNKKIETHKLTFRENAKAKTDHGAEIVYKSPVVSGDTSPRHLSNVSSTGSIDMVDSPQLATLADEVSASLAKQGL
In words: indirect or sandwich ELISA on recombinant human Tau isoforms. In general terms: In an ELISA, binding on a coated surface is turned into a signal by an enzyme label.

The target of experiment [4] is T1, recombinant human Tau monomer, 2N4R …. Briefly: SPR, mIgG2a captured, Tau monomer analyte, 1:1 fit. In a few lines: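 Antibodies in mIgG2a format captured on anti-mouse IgG surface at 1 μg/ml (30 or 45 s) or 0.1 μg/ml (70 or 150 s), 10 μl/min, in HBSP (10 mM HEPES pH7.4, 150 mM NaCl, 0.05% Tween 20). Tau monomer flowed as analyte; association 180-480 s, dissociation 300-600 s, 1:1 fit.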

Experiment [5] addresses T4, MAPT(10-24) (human, also: biotinylated, site not given here).
T4 construct: also called Tau fragment 10-24
T4 peptide: VMEDHAGTYGLGDRK
In words: ELISA on Tau 15-mer peptides, O.D.; conditions of this panel not given.

Experiment [6] concerns the target T5, Tau fragment 1-15 (human, UniProt P10636-8 1-15).
T5 construct: range 1-15
T5 peptide (looked up): MAEPRQEFEVMEDHA
The description is as above.

The target in experiment [7] is T6, Tau fragment 19-33 (human, UniProt P10636-8 19-33, not fully specified).
T6 construct: range 19-33
T6 peptide (looked up): GLGDRKDQGGYTMHQ
The description is as above.

Experiment [8] addresses T7, Tau fragment 28-42 (human, UniProt P10636-8 28-42, not fully specified).
T7 construct: range 28-42
T7 peptide (looked up): GYTMHQDQEGDTDAG
The description is as above.

Experiment [9] concerns the target T8, Tau fragment 37-51 (human, UniProt P10636-8 37-51).
T8 construct: range 37-51
T8 peptide (looked up): GDTDAGLKESPLQTP
The description is as above.

In experiment [10] the target is T9, AVI-tag biotinylated oligomeric flTau (human, UniProt P10636-8 1-441, site-specific biotin on AVI-tag).
T9 construct: also called oligoTau; oligomeric Tau
Briefly: capture ELISA, antibody on anti-IgG plate, biotinylated oligoTau titrated, O.D. The protocol: (§1) For the oligoTau and monoTau capture ELISAs, antibodies contained in serum-free sterile hybridoma supernatants were immobilized on an anti-IgG coated plate at 500-fold dilution, followed by the incubation of oligoTau or monoTau, both with site-specific biotinylation via an AVI-tag. The target incubations started at 5 μg/mL and then were diluted 8- or 16-fold. Streptavidin-HRP and ABTS substrate was used for signal quantitation in a plate reader (Tecan, Switzerland). Results are expressed as O.D.

Experiment [11] concerns the target T2, full-length human Tau (flTau). Briefly: indirect ELISA, flTau coated, hybridoma supernatant diluted, O.D. How it is done:
Coating was done overnight in phosphate-buffered saline (PBS) at 4° C. Plates were washed thoroughly with 0.05% Tween-20/PBS and then blocked with 1% bovine serum albumin (BSA) in 0.05% Tween-20/PBS for 1 hr at 37° C. The antibody contained in the hybridoma supernatant was then added at the indicated dilutions, and incubated for 2 hrs at 37° C. after which the plates were washed as described previously.
For the indirect ELISAs, an AP-conjugated anti-mouse IgG secondary antibody (Jackson ImmunoResearch Laboratories, United Kingdom) was added at 1/6000 dilution in 0.05% Tween-20/PBS for 2 hr at 37° C. After the final wash, plates were incubated with p-nitrophenyl phosphate disodium hexahydrate (pNPP; Sigma-Aldrich, Switzerland) phosphatase substrate solution, and read at 405 nm using an ELISA plate reader (Tecan, Switzerland). Results are expressed as optical densities (O.D.).

Experiment [12] concerns the target T10, AVI-tag biotinylated monomeric flTau (human, UniProt P10636-8 1-441, site-specific biotin on AVI-tag).
T10 construct: also called monoTau; monomeric Tau
Briefly: capture ELISA, antibody on anti-IgG plate, biotinylated monoTau titrated, O.D. The protocol:
as §1

Where no end group is shown, it is not given here.

The values that follow come from US20190367592A1 (AC IMMUNE, published 2019).

The term Kd denotes a measure of binding affinity in units of concentration. The koff is the rate constant with which the complex falls apart. For orientation: kon means the rate constant with which the complex forms. Broadly, the EC50 (read off the curve) is the concentration at which the effect is half-maximal.

T1 sequence (P10636 other isoform, or with tags, fused parts or gaps limits assumed): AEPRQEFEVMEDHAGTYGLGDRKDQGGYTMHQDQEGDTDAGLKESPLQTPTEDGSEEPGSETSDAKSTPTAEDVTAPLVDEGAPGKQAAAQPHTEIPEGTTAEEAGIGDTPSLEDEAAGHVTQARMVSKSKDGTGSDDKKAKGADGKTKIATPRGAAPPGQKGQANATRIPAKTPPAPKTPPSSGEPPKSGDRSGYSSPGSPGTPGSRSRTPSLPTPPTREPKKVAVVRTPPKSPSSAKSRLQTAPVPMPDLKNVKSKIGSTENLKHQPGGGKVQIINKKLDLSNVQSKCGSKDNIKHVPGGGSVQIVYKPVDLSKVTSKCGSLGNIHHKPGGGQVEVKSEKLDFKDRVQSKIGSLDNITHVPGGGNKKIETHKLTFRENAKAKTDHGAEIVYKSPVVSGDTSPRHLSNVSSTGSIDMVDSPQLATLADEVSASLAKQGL

B1: hu37D3-H9.v28.A4 hIgG4.S228P.YTE (antibody, V domains shown)
VH: EVQLVESGGGLVQPGGSLRLSCAASGLIFRSYGMSWVRQAPGKGLEWVATINSGGTYTYYPDSVKGRFTISRDNSKNTLYLQMNSLRAEDTAVYYCANSYSGAMDYWGQGTLVTVSS
VL: DDVLTQTPLSLPVTPGQPASISCRSSQSIVHSNGNTYLEWYLQKPGQSPQLLIYKVSNRFSGVPDRFSGSGSGTDFTLKISRVEAEDVGVYYCFQGSLVPWTFGQGTKVEIKR
notes: also called hu37D3.v28.A4 hIgG4-S228P.YTE
Turning to B1, in experiment [1], the Kd was found to be 1.4 nM, the koff stood at 0.0009 s⁻¹ and the kon stood at 600000 M⁻¹ s⁻¹.

B2: 72E12-H9 (antibody, V domains shown)
VH: EVKLEESGGGLVQPGGSMKLSCVASGFTFSNYWMNWVRQSPEKGLEWVAQIRLKSDNYATHYAESVKGRFTISRDDSKSSVYLQMNNLRAEDTGIYYCAGYFYGGYFDVWGTGTTVTVSS
VL: ELVLTQSPTTMAASPGKKITITCSASSSISSNYLHWYQQKPGFSPKLLIYRTSNLASGVPARFSGSGSGTSYSLTIGTMEAEDVATYYCQQGSSLPFTFGSGTKLEIK
notes: hybridoma supernatant
B2 registered a Kd in experiment [2] of 2 nM. In addition, the binding result in experiment [3] is listed as “no binding (tested: not given)”.

B3: 30D12-B5 (antibody, V domains shown)
VH: EVQLQQSGAELVKPGASVKLSCTTSGFNIKDTYMHWVKQRPEQGLEWIGGIDPANGNTKYDPKFQGKATITADTSSNTAYLQLSSLTSEDTAVYYCAHGNFVYWGQGTLVTVSA
VL: DVVMTQTPLSLSVTIGQPASISCKSSQSLLYSNGKTYLNWFQQRPGQAPKHLMYQVSKLDPGIPDRFSGSGSETDFTLKISRVEAEDLGVYYCLQGTYYPLTFGAGTNLELK
notes: hybridoma supernatant
Turning to B3, binding in [2] was characterised by a dissociation constant (Kd) of 2 nM. Further, the binding result in experiment [3] is given as “no binding (tested: not given)”.

B4: 77D1-D2 (antibody, V domains shown)
VH: EVQLQQSVAELVRPGASVTLSCTSSGFNIKNTYMHWVIQRPEQGLEWIGKIDPAIVNTKYAPKFQGKATITADTSSNTAYLQLSSLTSEDTGIYYCAEGALLYWGLGTSVTVSS
VL: DVVMTQTPLSLSVTIGQPASISCKSSQSLLHSNGKTYLNWLQQRPGQAPKLLMYLVSKVDPGIPDRFSGSGSETDFTLKISRVEAEDLGVYYCFQGTYYPHTFGGGTKLEIK
notes: hybridoma supernatant
With B4, the affinity in experiment [2], expressed as Kd, was 0.5 nM. Moreover, the binding result in [3] is reported as “no binding (tested: not given)”.

B5: 19H6-F7 (antibody, mouse IgG2a, V domains shown)
VH: EVQLVESGGDLVKPGGSLKLSCAASGFTFSSYGMSWVRQTPDKRLEWVATISSGGTYTYYPDSVKGRFTISRDNAKNTLYLQMSSLKSEDTAMYYCAPSYDGAMDYWGQGTSVTVSS
VL: DVLMTQTPLSLPVSLGDQASISCRSSQSIVHSNGNTYLEWYLQKPGQSPKLLIYKVSNRFSGVPDRFSGSGSGTDFTLKISRVEAEDLGVYYCFQGSLVPWTFGGGTKLEIK
On to B5, for which the Kd in experiment [2] turned out to be 39 nM; in [4], 10 nM. For the same molecule, the koff in experiment [4] came to 0.002 s⁻¹. Besides, the kon in [4] turned out to be 200000 M⁻¹ s⁻¹. For the same molecule, the binding result is “binds” in experiment [5]; “no binding (tested: not given)” in experiment [6]; “no binding (tested: not given)” in experiment [7]; “no binding (tested: not given)” in [8]; “no binding (tested: not given)” in experiment [9]. In addition, in experiment [10], the “EC50 (read off the curve)” value was roughly 0.2 µg/mL.

B6: 15C6-A7 (antibody, V domains shown)
VH: EVQLQQSGPELVKPGASVMMTCKASGYTFTDYYMKWVKQSNGKSLEWIGDLDPYTGGANYNQKFKGKATLTVDKSSSTAYMHLNSLTSEDSAVYYCARSRGYGDSFAYWGQGTLVTVSA
VL: DVLMTQTPLSLPVSLGDQASISCRSSQNIVHSNGNTYLEWYLQKPGQSPKLLIYKVSNRFSGVPDKFSGSGSGTDFTLKISRVEAEDLGVYFCFQGSHVPPTFGGGTKLEIK
notes: hybridoma supernatant
As for B6, the binding result in experiment [11], in experiment [12] and in [10] was “binds” in each case.

B7: 3A4-H4 (antibody, mouse IgG2a, V domains shown)
VH: EVQLVESGGDLVKPGGSLKLSCAASGFTFSSYGMSWVRQTPDKRLEWVATISSGGTYTYYPDSVKGRFTISRDNAKNTLYLQMSSLKSEDTAMYFCATSYDGAMDYWGQGTSVTVSS
VL: DVLMTQTPLSLPVSLGDQASISCRSSQNIVHSNGNTYLEWYLQKPGQSPKLLIYKVSNRFSGVPDRFSGSGSGTDFTLKISRVEAEDLGVYYCFQGTLVPWTFGGGTKLEIK
On to B7, for which the Kd in [2] came out at 7.8 nM; in experiment [4], 12 nM. Besides, the koff in experiment [4] was 0.0003 s⁻¹. Moreover, the kon in experiment [4] is 30000 M⁻¹ s⁻¹. The binding result in experiment [6], in experiment [7], in [8] and in experiment [9] was “no binding (tested: not given)” in each case. In experiment [10], the “EC50 (read off the curve)” value was roughly 0.09 µg/mL.

B8: 73H6-B8 (antibody, V domains shown)
VH: QVQLKESGPGLVAPSQSLSITCTISGFSLTSYGVHWVRQPPGKGLEWLVVIWSDGSTTYNSALKSRLSISKDNSKSQVFLKMNSLQTDDTAMYYCARQGGFITTAYYAMDYWGQGTSVTVSS
VL: DIVMSQSPSSLAVSAGEKVTMSCKSSQSLLNSRTRKNYLAWYQQKPGQSPKLLIYWASTRESGVPDRFTGSGSGTDFTLTISSVQAEDLAVYYCKQSYNLYTFGGGTKLEIK
notes: hybridoma supernatant
B8: the binding result in experiment [12] and in experiment [10] was “binds” throughout.

B9: 211G6-B6 (antibody, V domains shown)
VH: QVQLKESGPGLVAPSQSLSITCTVSGFSLTSYAISWVRQPPGKGLEWLGVIWTGGGTNYNSALKSRLSITKDNSKNQVFFRMNSLQTDDTARYYCARKKLYDYDGGYFFDYWGQGTTLTVSS
VL: DIVMSQSPSSLAMSVGEKVTMSCKSNQSLLYSSNQKNYLAWYQQKPGQSPKLLIYWASTRESGVPDRFTGSGSGTDFTLTISSVKAEDLAVYYCHQYYSYPWTFGGGTKLEIK
Take B9: the Kd in experiment [2] is 4.7 nM. In addition, in experiment [3], the binding result is reported as “no binding (tested: not given)”.

B10: 14F5-D9 (antibody, V domains shown)
VH: EVKLVESGGGLVQPGGSLRLSCATSGFTFSDFYMEWVRQSPGKRLEWIAASKNKANDYTTEYNASVKDRFFVSRDTSQSILYLQMNALRAEDTAIYYCARDALGTVFAYWGQGTLVTVSA
VL: DVVMTQTPLSLPVSLGDQASISCRSSQSLVHSNGNTYLHWYLQKPGQSPKLLIYKVFNRFSGVPDRFSGSGSGTDFTLKISRVEAEDLGVYFCSQSTLVPLTFGAGTKLELK
notes: hybridoma supernatant
With B10, the binding result in [11], in experiment [12] and in experiment [10] was “binds” in each case.
